Source: the supplement of paper PMC10724198
± gives the standard deviation of the averaged measurements.

System: Saccharomyces cerevisiae
Experiment: protein stability index of tFT-peptide fusion (C-terminal peptide) (PSI (0-1 scale)); higher = more stable (slower turnover)
Details: temperature: 30 C
Experimental: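 MPS profiling in S. cerevisiae of the yeast C-terminome library: the last 12 aa of each annotated ORF are fused to the C-terminus of a sfGFP-mCherry timer, after a GGGS linker. Cells are FACS-sorted into 8 mCherry/sfGFP bins and deep-sequenced. PSI runs from 0 (unstable) to 1 (stable); wild type and das1Δ backgrounds, two technical replicates each.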

[1] = genetic background: das1 deletion

Sequence	protein stability index [1]	protein stability index (genetic background: wild type)
DFNDSSNLKKTR [CLN3 C-terminal 12 aa]	0.7398 ± 0.0057	0.693 ± 0.039
GEYYNLIVPSLD [YGK3 C-terminal 12 aa]	0.7209 ± 0.0012	0.698 ± 0.014
ILIRKKLKAENI [OPY1 C-terminal 12 aa]	0.677 ± 0.021	0.646 ± 0.053
SVFIAAVAAMLI [CCW14 C-terminal 12 aa]	0.603 ± 0.013	0.586 ± 0.016
NEMRERLRALQN [VPS24 C-terminal 12 aa]	0.668 ± 0.011	0.685 ± 0.054
TANKAGNKFQLS [LDO16 C-terminal 12 aa]	0.707 ± 0.0029	0.675 ± 0.019
NTNELTDEHRWI [PHO2 C-terminal 12 aa]	0.6977 ± 0.0017	0.668 ± 0.017
AARPCLEGSVAP [YOR050C C-terminal 12 aa]	0.686 ± 0.01	0.6795 ± 0.0067
NRAKGKVVVKMK [YIM1 C-terminal 12 aa]	0.69 ± 0.022	0.6976 ± 0.0037
KSEIDTLKQDQK [TYE7 C-terminal 12 aa]	0.656 ± 0.011	0.6659 ± 0.0018
KLTSTVTLNLLY [YGR107W C-terminal 12 aa]	0.692 ± 0.019	0.697 ± 0.029
NNLHSYEKRLHN [YAR075W C-terminal 12 aa]	0.69 ± 0.019	0.7 ± 0.015
ISNLPECLGNLC [ANR2 C-terminal 12 aa]	0.6968 ± 0.0047	0.6926 ± 0.006
LKKKLYTLEQKK [KEL2 C-terminal 12 aa]	0.694 ± 0.02	0.6241 ± 0.0031
EDYAYWGNRQLY [PER1 C-terminal 12 aa]	0.7133 ± 0.0036	0.743 ± 0.038
KSAKATKASQEL [HTA1 C-terminal 12 aa]	0.691 ± 0.011	0.675 ± 0.045
VLDQITGDLKLY [PTH2 C-terminal 12 aa]	0.691 ± 0.014	0.6285 ± 0.0052
IHYLLHIERERK [YOR385W C-terminal 12 aa]	0.683 ± 0.037	0.681 ± 0.014
KREKTMRNSMLP [YIR036W-A C-terminal 12 aa]	0.684 ± 0.0091	0.736 ± 0.076
CSPVLFSLLNIA [LCB3 C-terminal 12 aa]	0.699 ± 0.012	0.674 ± 0.087
ISFDLCGKQNFQ [MTC7 C-terminal 12 aa]	0.705 ± 0.056	0.719 ± 0.044

Sequence	protein stability index [1]	protein stability index (genetic background: wild type)
RVAVIEDDEDED [LEO1 C-terminal 12 aa]	0.688 ± 0.0068	0.692 ± 0.021
SQIRTPLVMLLM [YOR318C C-terminal 12 aa]	0.651 ± 0.025	0.454 ± 0.0056
LEEFLVRGTNNQ [ATP25 C-terminal 12 aa]	0.711 ± 0.018	0.663 ± 0.012
DEDLWEEQEVCP [YGR017W C-terminal 12 aa]	0.702 ± 0.0037	0.709 ± 0.011
ISKLKGISKPSP [MDS3 C-terminal 12 aa]	0.682 ± 0.014	0.687 ± 0.023
SMGNYYKSFFSM [OMA1 C-terminal 12 aa]	0.704 ± 0.02	0.6294 ± 0.0025
FDYDFLFGNDFA [OAF1 C-terminal 12 aa]	0.791 ± 0.006	0.75 ± 0.052
SRVVLSQGDSDD [TOF1 C-terminal 12 aa]	0.68424 ± 0.00057	0.662 ± 0.026
TQQVVDDVLSRL [LYS12 C-terminal 12 aa]	0.738 ± 0.0082	0.732 ± 0.038
DTVLRKFADYKI [MPS1 C-terminal 12 aa]	0.7043 ± 0.0052	0.679 ± 0.032
FWFLFPLRLPGG [IRC16 C-terminal 12 aa]	0.5766 ± 0.0015	0.5685 ± 0.0012
MEKSDRYIQETW [TAH18 C-terminal 12 aa]	0.7032 ± 0.0048	0.691 ± 0.009
FFTIEKYSVRRS [YOL013W-A C-terminal 12 aa]	0.7332 ± 0.0047	0.681 ± 0.01
RKYPNQCGTISN [EXG1 C-terminal 12 aa]	0.712 ± 0.011	0.674 ± 0.03
VPELTEKLGKYK [AIM45 C-terminal 12 aa]	0.697 ± 0.019	0.676 ± 0.026
NEKGNDDSDAKK [ILM1 C-terminal 12 aa]	0.695 ± 0.041	0.685 ± 0.029
PSYPSEKISYSK [ADO1 C-terminal 12 aa]	0.7017 ± 0.0027	0.726 ± 0.065
ATSITSLGVKRA [AUR1 C-terminal 12 aa]	0.702 ± 0.01	0.688 ± 0.026
VTQILYTPIESS [SIP2 C-terminal 12 aa]	0.679 ± 0.028	0.696 ± 0.03
INNTDITLYNDV [YPL068C C-terminal 12 aa]	0.707 ± 0.019	0.696 ± 0.056
